Test [1] addresses biotinylated mouse IL-2Rβ (mouse) (UniProt P16297). In words: BLI; same set-up as a7; equilibrium titration, first-order fit (Supplemental Figure 6G,H, Supplemental Table 1). (In general: In BLI a coated tip is dipped into the sample, and binding shifts an interference pattern.)
Test [2] has as its target biotinylated human IL-2 (amino acids 1-133, C-terminal biotin acceptor peptide) (human) (UniProt P60568). The test can be described thus: BLI; same set-up as a5; equilibrium titration, first-order fit (Supplemental Figure 6C,D, Supplemental Table 5).
Test [3] shares this target. In words: BLI; same set-up as a1; equilibrium titration of the response at the end of the association phase, first-order fit (Figures 2 and 3, Supplemental Table 1).
For test [4], the target named is biotinylated human IL-2Rα ectodomain (amino acids 1-217) (human). The test is described as above.
For test [5], the target named is biotinylated mouse IL-2Rα (mouse) (UniProt P01590). In words: BLI; biotinylated mouse IL-2Rα or IL-2Rβ on streptavidin tips; ICs or 602 Ab in PBSA; kinetic fit, 1:1 binding model (Supplemental Figure 6E,F, Supplemental Table 1).
biotinylated mouse IL-2Rα (mouse), sequence (P01590 22-268): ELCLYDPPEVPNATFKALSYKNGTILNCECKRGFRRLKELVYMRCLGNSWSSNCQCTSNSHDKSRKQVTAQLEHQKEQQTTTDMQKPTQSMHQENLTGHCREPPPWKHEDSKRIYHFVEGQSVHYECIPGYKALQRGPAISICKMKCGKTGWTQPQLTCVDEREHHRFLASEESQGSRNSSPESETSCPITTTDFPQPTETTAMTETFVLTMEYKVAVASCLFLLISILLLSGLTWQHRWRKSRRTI
Test [6] deals with biotinylated mouse IL-2Rβ (mouse) (UniProt P16297). Described as above.
biotinylated mouse IL-2Rβ (mouse), sequence (P16297 27-539): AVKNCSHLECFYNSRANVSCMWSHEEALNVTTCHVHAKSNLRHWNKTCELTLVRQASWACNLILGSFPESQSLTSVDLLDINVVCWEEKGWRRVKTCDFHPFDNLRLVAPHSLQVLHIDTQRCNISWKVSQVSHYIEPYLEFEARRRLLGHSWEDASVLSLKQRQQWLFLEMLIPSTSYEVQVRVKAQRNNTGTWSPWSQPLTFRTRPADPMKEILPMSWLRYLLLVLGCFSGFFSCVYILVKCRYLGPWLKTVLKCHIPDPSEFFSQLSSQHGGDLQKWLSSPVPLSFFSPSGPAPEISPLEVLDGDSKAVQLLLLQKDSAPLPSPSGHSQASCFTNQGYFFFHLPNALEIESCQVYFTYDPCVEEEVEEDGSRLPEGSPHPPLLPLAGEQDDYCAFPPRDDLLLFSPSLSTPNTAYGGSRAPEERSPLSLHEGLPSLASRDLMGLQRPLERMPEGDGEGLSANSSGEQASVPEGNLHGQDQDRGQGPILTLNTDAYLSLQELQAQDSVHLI
Test [7] has as its target T1, biotinylated human IL-2Rβ ectodomain (amino acids 1-214) (human) (UniProt P14784).
T1 sequence (chain, biotin on the biotin acceptor peptide (BirA ligase)): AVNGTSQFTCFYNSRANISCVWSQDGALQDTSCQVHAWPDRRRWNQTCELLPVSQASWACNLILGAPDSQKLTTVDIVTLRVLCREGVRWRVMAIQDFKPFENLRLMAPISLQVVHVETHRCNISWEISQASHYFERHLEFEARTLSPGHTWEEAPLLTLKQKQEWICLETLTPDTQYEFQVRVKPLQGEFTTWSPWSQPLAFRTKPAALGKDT
In words: BLI; biotinylated human IL-2, IL-2Rα or IL-2Rβ on streptavidin tips (Octet Red96); soluble analyte in PBSA (PBS pH 7.2, 0.1% BSA), 300 s association; kinetic fit, 1:1 binding model; IL-2/602 Cx 2:1 by the legend (Supplemental Figure 2, Supplemental Table 1).

Test [8] deals with biotinylated human IL-2 (amino acids 1-133, C-terminal biotin acceptor peptide) (human) (UniProt P60568). In words: BLI; same set-up as a3; equilibrium titration, first-order fit (Supplemental Figure 4A-C, Supplemental Table 4).
In test [9] the target is T1, biotinylated human IL-2Rβ ectodomain (amino acids 1-214) (human). Described as above.
The target is the same in test [10]. In words: BLI; same set-up as a1; equilibrium titration of the response at the end of the association phase, first-order fit (Figures 2 and 3, Supplemental Table 1).
The target of test [11] is biotinylated human IL-2 (amino acids 1-133, C-terminal biotin acceptor peptide) (human) (UniProt P60568). The test can be described thus: BLI; biotinylated human IL-2 or IL-2Rβ on streptavidin tips; engineered 602 IC variants and controls in PBSA; kinetic fit, 1:1 binding model (Supplemental Figure 5, Supplemental Table 4).
Test [12] deals with T1, biotinylated human IL-2Rβ ectodomain (amino acids 1-214) (human). Described as above.
The target in test [13] is biotinylated human IL-2 (amino acids 1-133, C-terminal biotin acceptor peptide) (human) (UniProt P60568). The test can be described thus: BLI; biotinylated human IL-2, IL-2Rα or IL-2Rβ on streptavidin tips (Octet Red96); soluble analyte in PBSA (PBS pH 7.2, 0.1% BSA), 300 s association; kinetic fit, 1:1 binding model; IL-2/602 Cx 2:1 by the legend (Supplemental Figure 2, Supplemental Table 1).

Test [14] addresses biotinylated human IL-2Rα ectodomain (amino acids 1-217) (human). Described as above.

One may read the Kd as the equilibrium constant for the complex coming apart. A lower Kd goes with a tighter complex.

IL-2/602 complex (human IL-2 mixed with 602 antibody), sequence (VH): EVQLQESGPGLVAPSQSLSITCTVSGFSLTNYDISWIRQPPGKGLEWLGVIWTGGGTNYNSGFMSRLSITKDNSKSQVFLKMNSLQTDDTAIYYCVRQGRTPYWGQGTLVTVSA
IL-2/602 complex (human IL-2 mixed with 602 antibody), sequence (VL): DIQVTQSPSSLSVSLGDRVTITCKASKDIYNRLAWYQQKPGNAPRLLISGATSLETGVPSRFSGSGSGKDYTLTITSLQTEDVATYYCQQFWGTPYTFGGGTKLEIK

Consider “Control immunocytokine (IL-2-(G4S)7-light chain of anti-fluorescein antibody 4-4-20 + 4-4-20 heavy chain) (from UniProt P60568 21-153)”, for which the Kd in test [1] is > 10000 nM; in [2], > 2000 nM; in test [3], > 2000 nM; in test [4], 5.2 nM; in test [5], 4.74 nM; in test [6], > 10000 nM. Also, the Kd in test [7] was found to be 0.18 nM.

On to “IL-2/602 complex (human IL-2 mixed with 602 antibody) (from UniProt P60568 21-153)”, for which the dissociation constant Kd is 74 nM in [8]; 6 nM in test [9]; 168 nM in test [2]; 103 nM in [3]; 5.2 nM in test [10]; 13.3 nM in [11]. The equilibrium dissociation constant (Kd) in [12] worked out at 0.3 nM; in test [13], 10.6 nM; in test [14], 0.55 nM; in [7], 3.89 nM.

Regarding “602 immunocytokine with 25-amino-acid linker (IL-2-(G4S)5-602 light chain + 602 heavy chain) (from UniProt P60568 21-153)”, the dissociation constant (Kd) in test [3] was 941 nM; in test [4], > 2000 nM; in test [13], 76.9 nM; in [7] it was 3.66 nM.

Take “human IL-2 (amino acids 1-133), soluble (from UniProt P60568 21-153) (ligand)”: the Kd turned out to be 7.3 nM in test [4] and 3.2 nM in [14].

Take “602 immunocytokine with 35-amino-acid linker (IL-2-(G4S)7-602 light chain + 602 heavy chain) (from UniProt P60568 21-153)”: the dissociation constant Kd in test [8] is > 2000 nM; in test [9], 5.4 nM; in test [2], > 2000 nM; in test [3], > 2000 nM; in [4] it was > 2000 nM; in [10] it was 5 nM. In addition, the Kd is 0.26 nM in test [12], 143 nM in test [13] and 4.22 nM in test [7].

As for “602 immunocytokine with 15-amino-acid linker (IL-2-(G4S)3-602 light chain + 602 heavy chain) (from UniProt P60568 21-153)”, the Kd in [3] was 905 nM; in test [4] it was > 2000 nM; in test [10], 8.4 nM; in test [13], 88.3 nM.
